In publication PMC8888459, “During FeS cluster biogenesis, ferredoxin and frataxin use overlapping binding sites on yeast cysteine desulfurase Nfs1” (The Journal of Biological Chemistry, 2022):

Target: T1, NIA–Isu1 complex with S. cerevisiae Isu1 (S. cerevisiae | E. coli (endogenous in …, UniProt P25374 37-497; Q6Q560 1-94; P0A6A8 1-78; Q03020 28-165)
T1 construct: Nfs1, mitochondrial cysteine desulfurase of S. cerevisiae; Isd11 of S. cerevisiae; acyl carrier protein of E. coli (ACPEc), endogenous in the expression host, 8.6 kD; Isu1, FeS cluster scaffold protein of S. cerevisiae (Isu1Sc); Formed in the reaction mixture from NIA and Isu1Sc; the number of Isu1 chains in the complex was not measured here; also called NIA–Isu1Sc; NIA and Isu1Sc mixture; …
T1 sequence (P25374 37-497, chain 1 of 4): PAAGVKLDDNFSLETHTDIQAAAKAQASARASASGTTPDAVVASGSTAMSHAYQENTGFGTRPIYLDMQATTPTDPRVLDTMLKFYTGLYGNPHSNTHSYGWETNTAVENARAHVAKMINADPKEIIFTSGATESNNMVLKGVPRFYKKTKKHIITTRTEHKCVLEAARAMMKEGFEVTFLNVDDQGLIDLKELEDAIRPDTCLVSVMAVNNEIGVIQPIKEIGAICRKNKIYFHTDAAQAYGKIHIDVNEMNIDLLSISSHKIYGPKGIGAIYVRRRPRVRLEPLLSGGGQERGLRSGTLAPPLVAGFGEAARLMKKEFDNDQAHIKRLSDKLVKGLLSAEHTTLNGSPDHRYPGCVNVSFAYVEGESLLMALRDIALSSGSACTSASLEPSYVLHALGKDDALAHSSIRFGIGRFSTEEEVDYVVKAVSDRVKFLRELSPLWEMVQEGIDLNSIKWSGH
T1 sequence (Q6Q560 whole entry, chain 2 of 4): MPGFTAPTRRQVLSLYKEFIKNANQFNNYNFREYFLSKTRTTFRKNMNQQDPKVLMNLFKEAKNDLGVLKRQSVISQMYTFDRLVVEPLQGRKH
T1 sequence (P0A6A8 whole entry, chain 3 of 4): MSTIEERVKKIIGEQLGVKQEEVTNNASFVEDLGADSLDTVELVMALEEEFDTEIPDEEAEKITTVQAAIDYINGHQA
T1 sequence (Q03020 28-165, chain 4 of 4): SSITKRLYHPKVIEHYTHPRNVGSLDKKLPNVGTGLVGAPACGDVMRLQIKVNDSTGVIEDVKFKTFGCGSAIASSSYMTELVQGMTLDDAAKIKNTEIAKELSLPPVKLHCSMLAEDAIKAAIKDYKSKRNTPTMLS
Test: pull-down; competition: Yah1^GST (2.5 μM) with NIA (5 μM), with or without Isu1Sc or Isu1Ct (7.5 μM), then Yfh1 WT or DE/KK added (12.5 μM or increasing concentrations); glutathione resin; densitometry, amount without Yfh1 set as 100%; buffer PD
Conditions: both partners purified

B1: Yfh1 (frataxin) with a C-terminal polyhistidine tag (natural protein, S. cerevisiae, UniProt Q07540 52-174, looked up)
chain: VESSTDGQVVPQEVLNLPLEKYHEEADDYLDHLLDSLEELSEAHPDCIPDVELSHGVMTLEIPAFGTYVINKQPPNKQIWLASPLSGPNRFDLLNGEWVSLRNGTKLTDILTEEVEKAISKSQ
notes: Yfh1, mitochondrial frataxin of S. cerevisiae; also called Yfh1 (WT); source: E. coli expression systems
- percent reduction of Nfs1, Isd11 and Isu1 pulled down with Yah1^GST at a fivefold excess of Yfh1 (12.5 μM): 85%
